The test system of test [1] is human full-length FCHo1. The note with it: pull-down assay; lower than the other longer fragments with more DPF motifs tested in the same reference; ref Umasankar et al.23; cited from earlier work. From the text: page 12: Supplementary Table 3 Regions of Eps15, Eps15R, and Dab2, involved in binding to the µHDs of SGIP1/ SGIP1α/FCHo1/FCHo2 from various sources. µHD-containing protein µHD-binding Region involved in binding Number of DPF motifs Method used to confirm binding Strength of Reference protein to the µHD in the binding region affinity mouse SGIP1 µHD (aa501–807) Eps15 a residues 594–896 15 b pull-down assay (competition) unknown Reider et al. 8 mouse SGIP1α µHD (aa561–854) rat Eps15 residues 593–894 15 pull-down assay unknown Uezu et al.19 mouse SGIP1α µHD (aa428–854) rat Eps15 residues 636–747 ...

In test [2] the target is T1, SGIP1 μ homology domain (residues 552 to 828) (human, UniProt Q9BQI5-1 552-828).
T1 construct: A SeMet-substituted form (E. coli B834(DE3)) was used only for the structure of the domain alone; also called SGIP1 μHD; μHD; source: E. coli BL21-Gold (DE3) or Rosetta2, purified (Glutathione Sepharose, 3C protease cleavage on the column, Superdex 200)
T1 sequence (looked up): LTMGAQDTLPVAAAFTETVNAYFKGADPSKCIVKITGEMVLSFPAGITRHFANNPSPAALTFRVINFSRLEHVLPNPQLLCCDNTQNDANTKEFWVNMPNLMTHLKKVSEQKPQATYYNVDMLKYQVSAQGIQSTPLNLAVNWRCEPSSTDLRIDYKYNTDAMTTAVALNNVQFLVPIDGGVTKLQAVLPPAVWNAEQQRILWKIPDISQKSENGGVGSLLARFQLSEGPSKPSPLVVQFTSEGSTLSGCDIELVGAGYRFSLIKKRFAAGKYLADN
In words: ITC; VP-ITC, 25 °C, 50 mM Tris-HCl pH 8.0, 50 mM NaCl; for the majority the μHD (SGIP1, its mutants or FCHo1) in the cell, titrated with Eps15 fragments or peptides, for others the reverse (Supplementary Table 2); repeated twice, global fit with SEDPHAT, single-site or two-site model. The note with it: both partners purified. (In general: Isothermal titration calorimetry measures the heat released or taken up as one component is titrated into another.)

Test [3] deals with T2, FCHo1 μ homology domain (residues 623 to 889) (human, UniProt O14526-1 623-889).
T2 construct: FCHo1 (FCH domain only 1), human, μ homology domain, residues 623-889; also called FCHo1 μHD; source: E. coli, purified in the same manner as for the SGIP1 μHD
T2 sequence (looked up): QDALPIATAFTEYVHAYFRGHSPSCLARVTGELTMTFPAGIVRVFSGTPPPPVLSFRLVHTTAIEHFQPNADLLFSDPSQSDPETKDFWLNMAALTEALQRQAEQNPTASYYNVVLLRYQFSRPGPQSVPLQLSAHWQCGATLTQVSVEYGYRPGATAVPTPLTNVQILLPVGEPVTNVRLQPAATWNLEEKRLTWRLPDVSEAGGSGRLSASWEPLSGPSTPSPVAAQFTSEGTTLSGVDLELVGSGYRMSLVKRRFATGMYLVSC
Described as above. The note with it: both partners purified.

For the molecule “Eps15 residues 595–636: Eps15 region of a previous report, first DPF motifs of the high-affinity site, source assumed human (SKEEDPFNVDSSSLTGPVADTNLDFFQSDPFVGSDPFKDDPF; UniProt P42566 595-636, looked up, fragment)”, the Strength of affinity result in test [1] was “low”.

B1: Eps15-618–654 (domain or fragment, human, UniProt P42566-1 618-654, looked up)
chain: DFFQSDPFVGSDPFKDDPFGKIDPFGGDPFKGSDPFA
notes: also called 37-residue region containing six consecutive DPF motifs; source: E. coli, purified in the same manner as for the SGIP1 μHD
For B1, in test [2], the “Kd of the high-affinity site (two-site model)” value is roughly 0.065 µM. In test [3], the binding result is “binds”.

Source of the values: paper PMC4731787, “Structural basis for the recognition of two consecutive mutually interacting DPF motifs by the SGIP1 μ homology domain” (Scientific Reports, 2016).
